Measurements as given in the RNAGym collection of RNA variant scans (doi:10.7554/elife.90254).

B1: LINE1-mini (parent)
chain: GGCAGAGCUCAACACAGCGUGGCAAAGUGGCUGUGGCUAGACUGCC

Variants of: B1
Experiment: self-cleavage, relative activity (ratio to wild type); higher = more cleavage; in vitro, sequencing; the parent is a self-cleaving ribozyme

Point of comparison: GGCAGAGCUCUACACAGCGUGGCAAAGUGGCUGUUGCUAGACUGCC [A11U G35U], self-cleavage 0.02. Against it:
- GGCAGAGCUCUACACAGCGUGGCAAAGUGGCUGAGGCUAGACUGCC [A11U U34A] — higher, 0.04
- GGCAGAGCUCUACACAGCGUGGCAAAGUGGCUGCGGCUAGACUGCC [A11U U34C] — higher, 0.05
- GGCAGAGCUCUACACAGCGUGGCAAAGUGGCUGGGGCUAGACUGCC [A11U U34G] — the same, 0.02
- GGCAGAGCUCACCACAGCGUGGCAAAGUGUCUGUGGCUAGACUGCC [A12C G30U] — lower, 0.01
- GGCAGAGCUCACCACAGCGUGGCAAAGUGCCUGUGGCUAGACUGCC [A12C G30C] — higher, 0.04
- GGCAGAGCUCACCACAGCGUGGCAAAGUGACUGUGGCUAGACUGCC [A12C G30A] — higher, 0.03
- GGCAGAGCUCACCACAGCGUGGCAAAGUGGCUUUGGCUAGACUGCC [A12C G33U] — the same, 0.02
- GGCAGAGCUCACCACAGCGUGGCAAAGUGGCUAUGGCUAGACUGCC [A12C G33A] — higher, 0.05
- GGCAGAGCUCACCACAGCGUGGCAAAGUGGCUCUGGCUAGACUGCC [A12C G33C] — lower, 0.01
- GGCAGAGCUCACCACAGCGUGCCAAAGUGGCUGUGGCUAGACUGCC [A12C G22C] — the same, 0.02
- GGCAGAGCUCACCACAGCGUGACAAAGUGGCUGUGGCUAGACUGCC [A12C G22A] — higher, 0.03
- GGCAGAGCUCACCACAGCGUGUCAAAGUGGCUGUGGCUAGACUGCC [A12C G22U] — the same, 0.02
- GGCAGAGCUCACCACAGCGUGGCAAAGUGGCUGUGGCUAGACUCCC [A12C G44C] — higher, 0.05
- GGCAGAGCUCACCACAGCGUGGCAAAGUGGCUGUGGCUAGACUACC [A12C G44A] — higher, 0.03
- GGCAGAGCUCUACACAGCGUGGCAAAGCGGCUGUGGCUAGACUGCC [A11U U28C] — higher, 0.22
- GGCAGAGCUCUACACAGCGUGGCAAAGAGGCUGUGGCUAGACUGCC [A11U U28A] — higher, 0.11
- GGCAGAGCUCUACACAGCGUGGCAAAGGGGCUGUGGCUAGACUGCC [A11U U28G] — higher, 0.12
- GGCAGAGCUCACCACAGCGUGGCAAAGUGGCUGUGGCUAGACUGCC [A12C] — higher, 0.03
- GGCAGAGCUCACCACAGCAUGGCAAAGUGGCUGUGGCUAGACUGCC [A12C G19A] — the same, 0.02
- GGCAGAGCUCACCACAGCCUGGCAAAGUGGCUGUGGCUAGACUGCC [A12C G19C] — the same, 0.02
- GGCAGAGCUCACCACAGCUUGGCAAAGUGGCUGUGGCUAGACUGCC [A12C G19U] — higher, 0.03
- GGCAGAGCUCACCACAGGGUGGCAAAGUGGCUGUGGCUAGACUGCC [A12C C18G] — the same, 0.02
- GGCAGAGCUCACCACAGUGUGGCAAAGUGGCUGUGGCUAGACUGCC [A12C C18U] — higher, 0.04
- GGCAGAGCUCACCACAGAGUGGCAAAGUGGCUGUGGCUAGACUGCC [A12C C18A] — higher, 0.03
- GGCAGAGCUCUACACAGCGUGGCAAAGUGGCCGUGGCUAGACUGCC [A11U U32C] — higher, 0.04
- GGCAGAGCUCUACACAGCGUGGCAAAGUGGCAGUGGCUAGACUGCC [A11U U32A] — higher, 0.03
- GGCAGAGCUCUACACAGCGUGGCAAAGUGGCGGUGGCUAGACUGCC [A11U U32G] — higher, 0.03
- GGCAGAGCUCACCACAGCGUGGCAAAGUGGCUGUGGCUAGACUGUC [A12C C45U] — higher, 0.03
- GGCAGAGCUCACCACAGCGUGGCAAAGUGGCUGUGGCUAGACUGAC [A12C C45A] — higher, 0.03
- GGCAGAGCUCACCACAGCGUGGCAAAGUGGCUGUGGCUAGACUGGC [A12C C45G] — higher, 0.07
- GGCAGAGCUCACCACACCGUGGCAAAGUGGCUGUGGCUAGACUGCC [A12C G17C] — the same, 0.02
- GGCAGAGCUCACCACAACGUGGCAAAGUGGCUGUGGCUAGACUGCC [A12C G17A] — lower, 0.01
- GGCAGAGCUCACCACAUCGUGGCAAAGUGGCUGUGGCUAGACUGCC [A12C G17U] — the same, 0.02
- GGCAGAGCUCUACACAGCGUGGCAAAGUGGCUGUGGCUAUACUGCC [A11U G40U] — higher, 0.04
- GGCAGAGCUCUACACAGCGUGGCAAAGUGGCUGUGGCUAAACUGCC [A11U G40A] — higher, 0.03
- GGCAGAGCUCUACACAGCGUGGCAAAGUGGCUGUGGCUACACUGCC [A11U G40C] — the same, 0.02
- GGCAGAGCUCACCAGAGCGUGGCAAAGUGGCUGUGGCUAGACUGCC [A12C C15G] — higher, 0.03
- GGCAGAGCUCACCAUAGCGUGGCAAAGUGGCUGUGGCUAGACUGCC [A12C C15U] — higher, 0.03
- GGCAGAGCUCACCAAAGCGUGGCAAAGUGGCUGUGGCUAGACUGCC [A12C C15A] — higher, 0.03
- GGCAGAGCUCACUACAGCGUGGCAAAGUGGCUGUGGCUAGACUGCC [A12C C13U] — lower, 0.01
- GGCAGAGCUCACGACAGCGUGGCAAAGUGGCUGUGGCUAGACUGCC [A12C C13G] — higher, 0.04
- GGCAGAGCUCACAACAGCGUGGCAAAGUGGCUGUGGCUAGACUGCC [A12C C13A] — higher, 0.08
- GGCAGAGCUCUACACAGCGUGGCAAAGUGGCUGUGGCGAGACUGCC [A11U U38G] — lower, 0.01
- GGCAGAGCUCUACACAGCGUGGCAAAGUGGCUGUGGCCAGACUGCC [A11U U38C] — higher, 0.05
- GGCAGAGCUCUACACAGCGUGGCAAAGUGGCUGUGGCAAGACUGCC [A11U U38A] — higher, 0.07
- GGCAGAGCUCACCACAGCGUGGCCAAGUGGCUGUGGCUAGACUGCC [A12C A24C] — lower, 0.01
- GGCAGAGCUCACCACAGCGUGGCGAAGUGGCUGUGGCUAGACUGCC [A12C A24G] — higher, 0.04
- GGCAGAGCUCACCACAGCGUGGCUAAGUGGCUGUGGCUAGACUGCC [A12C A24U] — higher, 0.03
- GGCAGAGCUCACCACAGCGUGGCAAAGUGGCUGUGGCUACACUGCC [A12C G40C] — higher, 0.03
- GGCAGAGCUCACCACAGCGUGGCAAAGUGGCUGUGGCUAAACUGCC [A12C G40A] — higher, 0.04
- GGCAGAGCUCACCACAGCGUGGCAAAGUGGCUGUGGCUAUACUGCC [A12C G40U] — higher, 0.03
- GGCAGAGCUCUACACAGCGUGGCAAAGUGGCUGUGCCUAGACUGCC [A11U G36C] — higher, 0.03
- GGCAGAGCUCUACACAGCGUGGCAAAGUGGCUGUGACUAGACUGCC [A11U G36A] — the same, 0.02
- GGCAGAGCUCUACACAGCGUGGCAAAGUGGCUGUGUCUAGACUGCC [A11U G36U] — higher, 0.03
- GGCAGAGCUCACCACAGCGUGGCAAAGUGGCUGUGCCUAGACUGCC [A12C G36C] — the same, 0.02
